Laboratory results: paper PMC3510010
Positions count from the first letter of the chain named. Like-named read-outs stand apart in the source and are kept apart here.

Tests used:
Assay in all cases: F-EMSA
POS-1(1-206) [1] = target: T1, POS-1(1-206) (Caenorhabditis elegans, UniProt G5EF15 1-206)
GLD-1(135-336) [2] = target: T2, GLD-1(135-336) (Caenorhabditis elegans, UniProt Q17339 135-336)
T2 sequence: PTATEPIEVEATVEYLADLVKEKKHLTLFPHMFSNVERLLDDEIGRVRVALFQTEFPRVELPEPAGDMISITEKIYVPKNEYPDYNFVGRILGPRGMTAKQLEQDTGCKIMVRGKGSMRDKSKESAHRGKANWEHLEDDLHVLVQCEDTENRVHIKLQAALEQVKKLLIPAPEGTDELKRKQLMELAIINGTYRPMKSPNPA

POS-1-RBD (80-180) = POS-1-RBD (80-180) (Caenorhabditis elegans, UniProt G5EF15 80-180)
POS-1-RBD (80-180), sequence (G5EF15 80-180): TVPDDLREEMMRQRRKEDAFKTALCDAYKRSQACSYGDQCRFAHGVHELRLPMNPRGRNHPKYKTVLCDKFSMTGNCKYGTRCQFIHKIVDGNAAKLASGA

SPN-4-RBD = target: T3, SPN-4-RBD (Caenorhabditis elegans, UniProt G5EF02 50-135)
T3 sequence: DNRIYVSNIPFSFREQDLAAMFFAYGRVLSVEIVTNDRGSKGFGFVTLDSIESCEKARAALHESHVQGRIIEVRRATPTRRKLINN

POS-1(1-206) [3] = target: T1, POS-1(1-206); remark: listed apart in the source
POS-1(1-206) [4] = target: T1, POS-1(1-206); remark: listed apart in the source
GLD-1(135-336) [5] = target: T2, GLD-1(135-336); remark: listed apart in the source
POS-1(1-206) [6] = target: T1, POS-1(1-206); remark: listed apart in the source
GLD-1(135-336) [7] = target: T2, GLD-1(135-336); remark: listed apart in the source

T1 sequence (G5EF15 1-206): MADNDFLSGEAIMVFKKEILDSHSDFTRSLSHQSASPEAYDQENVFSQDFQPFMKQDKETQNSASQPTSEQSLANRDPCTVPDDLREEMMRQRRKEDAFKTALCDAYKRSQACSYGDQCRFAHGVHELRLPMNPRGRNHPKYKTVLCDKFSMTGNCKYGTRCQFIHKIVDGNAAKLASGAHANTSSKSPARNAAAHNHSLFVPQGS

B1: glp-1 WT (ssRNA)
RNA: UUUUUCUUAUUCUAGACUAAUAUUGUAAGCU
- Kd (POS-1(1-206) [1]): 19 ± 2 nM
- Kd (GLD-1(135-336) [2]): 70 ± 10 nM
- Kd (POS-1-RBD (80-180)): 30 ± 17 nM
- binding result (SPN-4-RBD): no binding

B2: ∆GBM (ssRNA)
RNA: B1 RNA with U18C
- Kd (POS-1(1-206) [3]): 21 ± 1 nM

B3: ∆5′ PRE (ssRNA)
RNA: B1 RNA with U8C, A9C, U10C
- Kd (POS-1(1-206) [4]): 55 ± 4 nM
- Kd (GLD-1(135-336) [5]): 33 ± 7 nM

B4: ∆3′ PRE (ssRNA)
RNA: B1 RNA with U21C, A22C, U23C
- Kd (POS-1(1-206) [6]): 53 ± 1 nM
- Kd (GLD-1(135-336) [5]): 25 ± 3 nM

B5: ∆5′ 3′ PRE (ssRNA)
RNA: UUUUUCUCCCUCUAGACUAACCCUGUAAGCU
- Kd (POS-1(1-206) [3]): 310 ± 20 nM
- Kd (GLD-1(135-336) [7]): 20 ± 3 nM
